This is an account of results in patent publication US20230026666A1 (CATHOLIC UNIVERSITY OF AMERICA, published 2023).

In one experiment the target is T1, CD4 receptor on cells (human, UniProt P01730 26-458).
T1 construct: whole, on cells; also called CD4 receptor on T cells; CD4+ T cells (A3.01, A3R5, J-Lat 10.6, human PBMC)
As to the kind of experiment: cell binding assay, protein coated, A3.01, A2.01 and Tzmbl cells added, CellTiterGlo detection.

Experiment [1] addresses T2, soluble human CD4 receptor with full-length extracellular domain (amino acids 1-370) (human, UniProt P01730 26-396).
T2 construct: extracellular domain; also called soluble CD4; recombinant soluble CD4 (NIH AIDS Reagent program, 4615)
The experiment in a line: ELISA, 0.1 ug protein coated per well, soluble CD4 added, detected with anti-CD4 antibody Sim.2. For orientation: ELISA stands for enzyme-linked immunosorbent assay.

B1: Hoc (highly antigenic outer capsid protein), N-terminal hexa-histidine tag (other)
chain: HHHHHHMTFTVDITPKTPTGVIDETKQFTATPSGQTGGGTITYAWSVDNVPQDGAEATFSYVLKGPAGQKTIKVVATNTLSEGGPETAEATTTITVKNKTQTTTLAVTPASPAAGVIGTPVQFTAALASQPDGASATYQWYVDDSQVGGETNSTFSYTPTTSGVKRIKCVAQVTATDYDALSVTSNEVSLTVNKKTMNPQVTLTPPSINVQQDASATFTANVTGAPEEAQITYSWKKDSSPVEGSTNVYTVDTSSVGSQTIEVTATVTAADYNPVTVTKTGNVTVTAKVAPEPEGELPYVHPLPHRSSAYIWCGWWVMDEIQKMTEEGKDWKTDDPDSKYYLHRYTLQKMMKDYPEVDVQESRNGYIIHKTALETGIIYTYP
notes: Negative control
As to B1, the binding result with CD4 receptor on cells is reported as “no binding (tested: 15 pmoles per well)”; in experiment [1], “no binding”.
